Assay results published in IntAct's records for PubMed 25678599.

B1: Segment polarity protein dishevelled homolog DVL-2 (Mus musculus), Q60838 (parent)
chain: MAGSSAGGGGVGETKVIYHLDEEETPYLVKIPVPAERITLGDFKSVLQRPAGAKYFFKSMDQDFGVVKEEISDDNARLPCFNGRVVSWLVSSDTPQPEVAPPAHESRTELVPPPPPLPPLPPERTSGIGDSRPPSFHPNVSSSHENLEPETETESVVSLRRDRPRRRDSSEHGAGGHRPGGPSRLERHLAGYESSSTLMTSELESTSLGDSDEDDTMSRFSSSTEQSSASRLLKRHRRRRKQRPPRMERTSSFSSVTDSTMSLNIITVTLNMEKYNFLGISIVGQSNERGDGGIYIGSIMKGGAVAADGRIEPGDMLLQVNDMNFENMSNDDAVRVLRDIVHKPGPIVLTVAKCWDPSPQAYFTLPRNEPIQPIDPAAWVSHSAALTGAFPAYPGSSSMSTITSGSSLPDGCEGRGLSVHMDMASVTKAMAAPESGLEVRDRMWLKITIPNAFLGSDVVDWLYHHVEGFPERREARKYASGLLKAGLIRHTVNKITFSEQCYYVFGDLSGGCESYLVNLSLNDNDGSSGASDQDTLAPLPGATPWPLLPTFSYQYPAPHPYSPQPPPYHELSSYTYGGGSASSQHSEGSRSSGSTRSDGGAGRTGRPEERAPESKSGSGSESELSSRGGSLRRGGEPGGTGDGGPPPSRGSTGAPPNLRALPGLHPYGAPSGMALPYNPMMVVMMPPPPPPVSTAVQPPGAPPVRDLGSVPPELTASRQSFHMAMGNPSEFFVDVM
partner: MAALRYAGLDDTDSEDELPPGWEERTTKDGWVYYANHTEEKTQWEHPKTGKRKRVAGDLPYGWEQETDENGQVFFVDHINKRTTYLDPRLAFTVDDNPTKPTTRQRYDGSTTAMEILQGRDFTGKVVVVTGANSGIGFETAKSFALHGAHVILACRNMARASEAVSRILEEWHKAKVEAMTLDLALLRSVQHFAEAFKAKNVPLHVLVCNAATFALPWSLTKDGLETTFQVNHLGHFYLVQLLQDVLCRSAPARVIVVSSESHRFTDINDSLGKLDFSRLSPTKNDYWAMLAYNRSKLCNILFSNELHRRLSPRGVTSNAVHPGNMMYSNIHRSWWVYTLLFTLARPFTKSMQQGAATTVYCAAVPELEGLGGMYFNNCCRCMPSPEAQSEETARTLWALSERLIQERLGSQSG
B2: WW domain-containing oxidoreductase (Homo sapiens), Q9NZC7 (parent)
chain: B1 partner
partner: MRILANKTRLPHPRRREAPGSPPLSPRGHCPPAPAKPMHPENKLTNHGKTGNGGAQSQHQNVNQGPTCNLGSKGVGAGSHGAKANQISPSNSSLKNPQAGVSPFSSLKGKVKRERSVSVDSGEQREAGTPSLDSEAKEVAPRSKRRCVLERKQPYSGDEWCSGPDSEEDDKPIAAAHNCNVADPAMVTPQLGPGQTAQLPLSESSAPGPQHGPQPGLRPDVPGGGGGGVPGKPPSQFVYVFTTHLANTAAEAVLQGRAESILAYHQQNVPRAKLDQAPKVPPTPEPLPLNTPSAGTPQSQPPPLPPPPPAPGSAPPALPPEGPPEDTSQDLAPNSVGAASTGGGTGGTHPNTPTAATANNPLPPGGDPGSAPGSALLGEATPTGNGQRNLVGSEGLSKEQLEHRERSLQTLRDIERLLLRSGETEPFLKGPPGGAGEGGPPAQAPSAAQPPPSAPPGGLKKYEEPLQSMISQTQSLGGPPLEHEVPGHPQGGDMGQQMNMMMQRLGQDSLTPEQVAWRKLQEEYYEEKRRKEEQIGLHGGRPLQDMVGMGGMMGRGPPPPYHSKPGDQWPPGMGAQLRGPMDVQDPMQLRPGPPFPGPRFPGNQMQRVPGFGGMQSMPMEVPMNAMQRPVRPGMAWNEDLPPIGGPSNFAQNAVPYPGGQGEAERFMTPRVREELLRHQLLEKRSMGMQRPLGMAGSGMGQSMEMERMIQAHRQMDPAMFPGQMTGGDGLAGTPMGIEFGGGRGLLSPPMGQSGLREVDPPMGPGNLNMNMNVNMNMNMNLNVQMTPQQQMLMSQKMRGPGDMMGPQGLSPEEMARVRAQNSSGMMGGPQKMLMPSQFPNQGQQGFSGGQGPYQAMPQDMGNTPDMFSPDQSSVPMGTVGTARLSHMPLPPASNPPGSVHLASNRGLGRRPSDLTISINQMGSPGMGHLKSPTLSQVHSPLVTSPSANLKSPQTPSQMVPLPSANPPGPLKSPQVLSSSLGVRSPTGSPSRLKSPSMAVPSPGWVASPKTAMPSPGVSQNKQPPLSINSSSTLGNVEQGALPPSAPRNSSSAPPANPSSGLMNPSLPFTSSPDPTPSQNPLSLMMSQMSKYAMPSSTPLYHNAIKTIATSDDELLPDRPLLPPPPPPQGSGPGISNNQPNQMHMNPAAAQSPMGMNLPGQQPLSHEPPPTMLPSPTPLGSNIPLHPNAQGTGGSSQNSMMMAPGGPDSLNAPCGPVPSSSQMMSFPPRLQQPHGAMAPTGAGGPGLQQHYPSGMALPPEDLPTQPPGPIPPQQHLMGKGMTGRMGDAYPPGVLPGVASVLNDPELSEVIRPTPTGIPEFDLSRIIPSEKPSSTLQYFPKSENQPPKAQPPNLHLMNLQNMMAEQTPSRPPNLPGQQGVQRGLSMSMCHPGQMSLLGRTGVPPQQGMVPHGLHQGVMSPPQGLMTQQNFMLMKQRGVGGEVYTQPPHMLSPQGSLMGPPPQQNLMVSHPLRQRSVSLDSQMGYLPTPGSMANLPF
B3: B-cell CLL/lymphoma 9-like protein (Mus musculus), Q67FY2 (parent)
chain: B2 partner
partner: B1 partner
B4: WW domain-containing oxidoreductase (Homo sapiens), Q9NZC7 (parent)
chain: B1 partner
partner: B1 chain

Variants of: B1
Settings: with wwox_human WWOX, Q9NZC7

Variant	effect of a mutation on the interaction
Y568A	decreasing interaction

Variants of: B2
Settings: with bcl9l_mouse Bcl9l, Q67FY2

Variant	effect of a mutation on the interaction
MAALRYAGLDDTDSEDELPPGWEERTTKDGWVRYANHTEEKTQWEHPKTGKRKRVAGDLPYGWEQETDENGQVFFVDHINKRTTYLDPRLAFTVDDNPTKPTTRQRYDGSTTAMEILQGRDFTGKVVVVTGANSGIGFETAKSFALHGAHVILACRNMARASEAVSRILEEWHKAKVEAMTLDLALLRSVQHFAEAFKAKNVPLHVLVCNAATFALPWSLTKDGLETTFQVNHLGHFYLVQLLQDVLCRSAPARVIVVSSESHRFTDINDSLGKLDFSRLSPTKNDYWAMLAYNRSKLCNILFSNELHRRLSPRGVTSNAVHPGNMMYSNIHRSWWVYTLLFTLARPFTKSMQQGAATTVYCAAVPELEGLGGMYFNNCCRCMPSPEAQSEETARTLWALSERLIQERLGSQSG [Y33R]	decreasing interaction

Variants of: B3
Settings: with wwox_human WWOX, Q9NZC7

Variant	effect of a mutation on the interaction
Y561A	disrupting interaction

Variants of: B4
Settings: with dvl2_mouse Dvl2, Q60838

Variant	effect of a mutation on the interaction
MAALRYAGLDDTDSEDELPPGWEERTTKDGWVRYANHTEEKTQWEHPKTGKRKRVAGDLPYGWEQETDENGQVFFVDHINKRTTYLDPRLAFTVDDNPTKPTTRQRYDGSTTAMEILQGRDFTGKVVVVTGANSGIGFETAKSFALHGAHVILACRNMARASEAVSRILEEWHKAKVEAMTLDLALLRSVQHFAEAFKAKNVPLHVLVCNAATFALPWSLTKDGLETTFQVNHLGHFYLVQLLQDVLCRSAPARVIVVSSESHRFTDINDSLGKLDFSRLSPTKNDYWAMLAYNRSKLCNILFSNELHRRLSPRGVTSNAVHPGNMMYSNIHRSWWVYTLLFTLARPFTKSMQQGAATTVYCAAVPELEGLGGMYFNNCCRCMPSPEAQSEETARTLWALSERLIQERLGSQSG [Y33R]	decreasing interaction
